# Laboratory results published in patent US20170115291A1, “Activating JAK Kinase Biomarkers Predictive of Anti-Immune Checkpoint Inhibitor Response” (Dana-Farber Cancer Institute, Inc., priority 2014, published 2017).
# Experiments:
# [1] = target: T1, PD-L1 (Homo sapiens, UniProt Q9NZQ7); experiment: Phase 1 study of MPDL3280A in a patient with metastatic lung adenocarcinoma; type: in vivo
# T1 construct: their tumor was also tested for PD-L1 expression and found to be positive; endogenous in cells; host or cells: tumour cells and immune cells (macrophages/monocytes) of a patient with metastatic lung adenocarcinoma
# Protocol: The patient also consented to enroll on a phase 1 multicenter open-label dose-escalation study to evaluate the safety, tolerability, and pharmacokinetics of MPDL3280A (DF/HCC Protocol 11-314; NCT#01375842). […] As part of the inclusion criteria, their tumor was also tested for PD-L1 expression and found to be positive. The drug was administered as a single agent at a dose of 20 mg/kg every 3 weeks. […] Tumor response and evaluation was performed by physical examination and serial chest/abdomenipelvic CT scans, and target lesions were evaluated using RECIST criteria. Following treatment discontinuation at 1 year, the patient has continued to be monitored every 3 months by examination and CT scans.
# Thus, after a temporary decline, the patient subsequently received sixteen cycles of MPDL3280A over a one-year period. […] They completed one year of therapy per protocol and remained without evidence of disease progression for an additional 12 months. At this point, they began to lose weight again and developed regrowth of the right adrenal mass (FIG. 1D), leading to re-initiation of MPDL3280A therapy.
# [2] = test system: CD4+ T cells and CD8+ T cells; experiment: T cell proliferation assay, monocytes from blood pre- and 1 h post-MPDL3280A infusion; type: cell-based, human; details: in the presence of circulating MPDL3280A (1 h post- vs pre-infusion), especially with monocytes primed with IFNγ
# Protocol: PBMCs were isolated from patient blood samples immediately pre- and 1 h post-treatment with MPDL3280A, as well as from a normal donor by Ficoll and plated in a density of 4×10^6 cells/ml to a 96-well plate. After 2 h at 37° C. non-adherent cells (lymphocyte portion) were removed by pipetting and remaining adherent cells (monocyte portion) were cultured with or without 250 ng/ml IFNγ. At 24 h, non-adherent lymphocytes were labeled with CFSE. Monocytes (IFNγ treated or untreated) were harvested by 5 mM EDTA treatment and resuspended in fresh medium. Both lymphocytes and monocytes were then plated to a 96-well plate pre-coated with 10 μg/ml OKT3 antibody. Proliferation of CD4+ T cells and CD8+ T cells were monitored at 72 h post-stimulation by CSFE dilution.
# [3] = Chemotherapy of the patient before MPDL3280A; type: in vivo, human; details: one patient, single cycle
# Excerpt: He then developed a perirectal abscess and was switched to dose-reduced carboplatin and pemetrexed, together with bevacizumab for three additional cycles and was transitioned to maintenance pemetrexed and bevacizumab.
# [4] = one patient, sixteen cycles over one year
# T1 sequence (Q9NZQ7 19-290): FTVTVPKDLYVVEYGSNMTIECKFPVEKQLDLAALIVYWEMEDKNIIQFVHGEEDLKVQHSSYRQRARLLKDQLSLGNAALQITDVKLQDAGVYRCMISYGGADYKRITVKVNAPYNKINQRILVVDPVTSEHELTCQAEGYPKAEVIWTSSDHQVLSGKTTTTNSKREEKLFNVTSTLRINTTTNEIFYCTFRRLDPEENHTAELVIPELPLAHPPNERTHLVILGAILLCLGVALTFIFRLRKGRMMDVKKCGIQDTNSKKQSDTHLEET
Time without evidence of disease progression after completing one year of therapy ([1]; off therapy) [months],"Tumor response by RECIST criteria ([1]; one patient, 20 mg/kg every 3 weeks, sixteen cycles over a one-year period)","Size of the paratracheal mass on serial chest CT scans ([1]; one patient, FIG. 1 panel C)","Right adrenal lesion on restaging scans after re-initiation of therapy ([1]; one patient, after another 3 months of MPDL3280A)","Symptoms [1, 4]",Substance,"Tolerability ([1]; one patient, 20 mg/kg every 3 weeks, 16 cycles)","Body weight [1, 4]","Narcotic pain medication [1, 4]",T cell activation (proliferation of autologous or allogeneic CD4+/CD8+ T cells) [2],Tolerability [3]
12,partial response,reduction in size,rapid improvement,complete resolutions of their symptoms,MPDL3280A: an engineered anti-PDL1 antibody (Genentech),tolerated well other than a mild flare of their underlying chronic obstructive pulmonary disease,return to pre-diagnosis body weight,discontinuation of all narcotic pain medication,significantly greater,–
–,–,–,–,–,carboplatin and paclitaxel,–,–,–,–,tolerated poorly
